Measurements from US20260274991A1 (TRIVENI BIO, published 2026).
Numbering of substitutions follows the chain as printed.

B1: Trypsin 1/Trypsin 2-Dual-L1-Ab2 (antibody, V domains shown)
VH: EVQLLESGGGLVQPGGSLRLSCAASGFTFGDYAMWWVRQAPGKGLEWVSAISASGDVTYYADSVKGRFTISRDNSKNTLYLQMNSLRAEDTAVYYCARGSLIGYSYARVSYYYYSDVWGKGTTVTVSS
VL: DIQMTQSPSSVSASVGDRVTITCRASQGISRWLAWYQQKPGKAPKLLIYAASSLQSGVPSRFSGSGSGTDFTLTISSLQPEDFATYYCQQGWSFPLTFGGGTKVEIK
B2: Trypsin 1/Trypsin 2-Dual-L2-Ab4 (antibody, V domains shown)
VH: QVQLQESGPGLVKPSETLSLTCTVSGGSISSHYWHWIRQPAGKGLEWIGRIHTSGSTFYNPSLKSRVTMSVDTSKNQFSLKLSSVTAADTAVYYCARDLTNYGWSKSIRFYGMDVWGQGTTVTVSS
VL: DIQMTQSPSSLSASVGDRVTITCQASQDISNYLNWYQQKPGKAPKLLIYDASNLETGVPSRFSGSGSGTDFTFTISSLQPEDIATYYCQQTDNFITFGGGTKVEIK
B3: Trypsin 1/Trypsin 2-Dual-L2-Ab2 (antibody, V domains shown)
VH: B2 VH with H32N, L99I, W104S, S105G, G112P
VL: B2 VL with T91D, N93T
B4: Trypsin 1/Trypsin 2-Dual-L2-Ab3 (antibody, V domains shown)
VH: B2 VH with H52A, F58Y, W104I, S105T
VL: B2 VL with T91V
B5: Trypsin 1/Trypsin 2-Dual-L3-Ab2 (antibody, V domains shown)
VH: QVQLVQSGAEVKKPGASVKVSCKASGYTFTDHYMHWVRQAPGQGLEWMGAINPSSGGTAYAQKFQGRVTMTRDTSISTAYMELSRLRSDDTAVYYCARVGGAARVGKAYTASAFDIWGQGTMVTVSS
VL: EIVMTQSPATLSVSPGERATLSCRASQSVGSNLAWYQQKPGQAPRLLIYGASTRATGIPARFSGSGSGTEFTLTISSLQSEDFAVYYCQQFHNWPPLTFGGGTKVEIK
B6: Trypsin 1/Trypsin 2-Dual-L4-Ab2 (antibody, V domains shown)
VH: QVQLVQSGAEVKKPGASVKVSCKASGYTFTDYAISWVRQAPGQGLEWMGWISASTADTNYAQKLQGRVTMTTDTSTSTAYMELRSLRSDDTAVYYCARGDEVVGKMTYYYGMDVWGQGTTVTVSS
VL: B1 VL with G91A, W92N, L96I
B7: Trypsin 1/Trypsin 2-Dual-L4-Ab3 (antibody, V domains shown)
VH: B6 VH with M106R, Y110I
VL: B1 VL with G91A, W92N, L96I
B8: Trypsin 1/Trypsin 2-Dual-L4-Ab4 (antibody, V domains shown)
VH: B6 VH with D100T, Y108V, Y110L
VL: B1 VL with G91A, W92N, L96I
B9: Trypsin 1/Trypsin 2-Dual-L5-Ab2 (antibody, V domains shown)
VH: QVQLVQSGAEVKKPGASVKVSCKASGYTFEGHYMHWVRQAPGQGLEWMGAINPYSGQTNYAQKFQGRVTMTRDTSISTAYMELSRLRSDDTAVYYCARDFVLLLRQSRILHESAFDIWGQGTTVTVSS
VL: B5 VL
B10: Trypsin 1/Trypsin 2-Dual-L1-Ab1 (antibody, V domains shown)
VH: B1 VH with G30S, D31S, W35S, D56G, V57S, L101P, S115M
VL: B1 VL with W92N
B11: Trypsin 1/Trypsin 2-Dual-L2-Ab1 (antibody, V domains shown)
VH: B2 VH with H32Y, H35S, H52Y, F58N, W104S, S105G
VL: B2 VL with T91D
B12: Trypsin 1/Trypsin 2-Dual-L3-Ab1 (antibody, V domains shown)
VH: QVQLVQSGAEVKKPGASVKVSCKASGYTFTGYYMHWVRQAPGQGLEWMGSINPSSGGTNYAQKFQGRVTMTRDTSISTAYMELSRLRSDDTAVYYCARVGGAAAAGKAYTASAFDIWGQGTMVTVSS
VL: B5 VL
B13: Trypsin 1/Trypsin 2-Dual-L4-Ab1 (antibody, V domains shown)
VH: B6 VH with D31S, A33G, S54Y, T55S, A56G
VL: B1 VL with G91A, W92N, L96I
B14: Trypsin 1/Trypsin 2-Dual-L4-Ab5 (antibody, V domains shown)
VH: B6 VH with G99Q, Y110I, M112T
VL: B1 VL with G91A, W92N, L96I
B15: Trypsin 1/Trypsin 2-Dual-L5-Ab1 (antibody, V domains shown)
VH: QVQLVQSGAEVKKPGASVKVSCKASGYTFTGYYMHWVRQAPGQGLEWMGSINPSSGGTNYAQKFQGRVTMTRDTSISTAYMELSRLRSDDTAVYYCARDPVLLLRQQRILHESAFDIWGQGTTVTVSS
VL: B5 VL

These binders were tested against Native Trypsin (abcam) (assay: cell-based or functional assay).
B1 was tested, and the “IC50 Against 0.25 nM Native Trypsin” value was 7.98 nM.
In the case of B2, the “IC50 Against 0.25 nM Native Trypsin” value is reported as 4.97 nM.
With B3 the “IC50 Against 0.25 nM Native Trypsin” value was 5.51 nM.
In the case of B4, the “IC50 Against 0.25 nM Native Trypsin” value is reported as 4.63 nM.
B5 was tested, and the “IC50 Against 0.25 nM Native Trypsin” value was 5.95 nM.
B6 was tested, and the “IC50 Against 0.25 nM Native Trypsin” value was 5.51 nM.
B7 was tested, and the “IC50 Against 0.25 nM Native Trypsin” value was 4.43 nM.
With B8 the “IC50 Against 0.25 nM Native Trypsin” value was 5.48 nM.
With B9 the “IC50 Against 0.25 nM Native Trypsin” value was 9.82 nM.

Each binder was assayed against human PRSS1 (R&D Systems), activated with enterokinase (human, UniProt P07477 24-247) (assay: cell-based or functional assay).
With B10 the “IC50 Against 1 nM hTryp-1” value was 63 nM.
For B1, the “IC50 Against 1 nM hTryp-1” value was 3.7 nM.
In the case of B2, the “IC50 Against 1 nM hTryp-1” value is reported as 3.71 nM.
B11 was tested, and the “IC50 Against 1 nM hTryp-1” value was 46 nM.
For B3, the “IC50 Against 1 nM hTryp-1” value was 2.67 nM.
For B4, the “IC50 Against 1 nM hTryp-1” value was 2.3 nM.
In the case of B12, the “IC50 Against 1 nM hTryp-1” value is reported as 5 nM.
B5 was tested, and the “IC50 Against 1 nM hTryp-1” value was 2.75 nM.
B6 was tested, and the “IC50 Against 1 nM hTryp-1” value was 2.07 nM.
B13 was tested, and the “IC50 Against 1 nM hTryp-1” value was 1.8 nM.
B7 was tested, and the “IC50 Against 1 nM hTryp-1” value was 2.31 nM.
In the case of B8, the “IC50 Against 1 nM hTryp-1” value is reported as 2.05 nM.
With B14 the “IC50 Against 1 nM hTryp-1” value was 2.4 nM.
In the case of B15, the “IC50 Against 1 nM hTryp-1” value is reported as 45 nM.
In the case of B9, the “IC50 Against 1 nM hTryp-1” value is reported as 5.87 nM.

Each binder was assayed against PRSS2 (R&D Systems), activated with enterokinase (human, UniProt P07478 24-247) (assay: cell-based or functional assay).
PRSS2 (R&D Systems), activated with enterokinase, sequence (P07478 24-247 limits assumed): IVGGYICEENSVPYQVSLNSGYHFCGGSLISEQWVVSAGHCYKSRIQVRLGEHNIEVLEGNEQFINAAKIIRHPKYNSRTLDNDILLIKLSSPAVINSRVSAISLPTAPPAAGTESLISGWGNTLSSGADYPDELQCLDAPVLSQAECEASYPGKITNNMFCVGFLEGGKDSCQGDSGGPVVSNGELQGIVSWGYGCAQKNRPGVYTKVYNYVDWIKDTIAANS
In the case of B10, the “IC50 Against 1 nM hTryp-2” value is reported as 79 nM.
With B1 the “IC50 Against 1 nM hTryp-2” value was 5.33 nM.
For B2, the “IC50 Against 1 nM hTryp-2” value was 5.6 nM.
For B11, the “IC50 Against 1 nM hTryp-2” value was 79 nM.
In the case of B3, the “IC50 Against 1 nM hTryp-2” value is reported as 3.3 nM.
With B4 the “IC50 Against 1 nM hTryp-2” value was 2.44 nM.
For B12, the “IC50 Against 1 nM hTryp-2” value was 16 nM.
B5 was tested, and the “IC50 Against 1 nM hTryp-2” value was 4.29 nM.
In the case of B6, the “IC50 Against 1 nM hTryp-2” value is reported as 2.03 nM.
B13 was tested, and the “IC50 Against 1 nM hTryp-2” value was 14 nM.
In the case of B7, the “IC50 Against 1 nM hTryp-2” value is reported as 2.01 nM.
With B8 the “IC50 Against 1 nM hTryp-2” value was 2.01 nM.
For B14, the “IC50 Against 1 nM hTryp-2” value was 2.7 nM.
In the case of B15, the “IC50 Against 1 nM hTryp-2” value is reported as 23 nM.
In the case of B9, the “IC50 Against 1 nM hTryp-2” value is reported as 6.09 nM.

Each binder was assayed against T1, human trypsin 2 with serine to alanine mutation (including a His tag at C terminus) (human, UniProt P07478 25-247, limits assumed) (assay: SPR (Biacore), antibody captured on Protein A chip, single-cycle kinetics, 25 C).
T1 construct: also called Trypsin 2 S to A
T1 sequence (P07478 other isoform, or with tags, fused parts or gaps limits assumed): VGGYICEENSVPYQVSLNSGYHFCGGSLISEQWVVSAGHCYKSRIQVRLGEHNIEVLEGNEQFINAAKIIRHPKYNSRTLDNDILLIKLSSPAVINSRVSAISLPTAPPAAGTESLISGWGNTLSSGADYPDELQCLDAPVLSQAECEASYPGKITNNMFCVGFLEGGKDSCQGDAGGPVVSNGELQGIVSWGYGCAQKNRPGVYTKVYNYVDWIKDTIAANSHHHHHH
Protocol: (§1) Antibody binding kinetic experiments via Biacore were performed to screen for anti-trypsin 1/trypsin 2 antibodies having high affinity to the respective targets. All screening assays were performed at 25 C. The running buffer used was 20 mM HEPES, 300 mM NaCl, 1 mM CaCl₂, 0.01% Tween-20, pH 7.5. Antibodies (1 ug/mL) were captured on Fc2-4 of a Series S ProteinA Sensor Chip (Cytiva) flowing at 10 uL/min for 30 s. Kinetics measurements were made in single-cycle kinetics mode with a series of 4-5 concentrations with top concentration of 10-200 nM and serial dilution 4-fold. Contact time was typically 180-300 s and dissociation time ranged from 300-3600 s. Flow rate of 30 uL/min was typically used. The sensor chip was regenerated with 10 mM glycine, pH 1.5 with a contact time of 30 s flowing at 50 uL/min.
In the case of B10, the Kd is reported as 0.763 nM.
With B1 the Kd was < 0.01 nM.
For B2, the Kd was 0.00904 nM.
B11 was tested, and the Kd was 2.2 nM.
In the case of B3, the Kd is reported as 0.00988 nM.
For B4, the Kd was 0.0219 nM.
For B12, the Kd was 0.159 nM.
In the case of B5, the Kd is reported as 0.0292 nM.
Binder B6 has a Kd of 0.0372 nM.
B13 was tested, and the Kd was 0.547 nM.
In the case of B7, the Kd is reported as 0.0451 nM.
For B8, the Kd was 0.0206 nM.
Work on B14 yielded a Kd of 0.0274 nM.
B15 was tested, and the Kd was 0.227 nM.
In the case of B9, the Kd is reported as 0.00648 nM.

What follows are binders tested against T2, human trypsin 1 with serine to alanine mutation (including a His tag at C terminus) (human, UniProt P07477 24-247) in the same assay as above.
T2 construct: also called Trypsin 1 S to A
Protocol: as §1
With B10 the Kd was 2.54 nM.
B1 was tested, and the Kd was < 0.01 nM.
For B2, the Kd was < 0.01 nM.
Work on B11 yielded a Kd of 2.61 nM.
Work on B3 yielded a Kd of 0.000891 nM.
With B4 the Kd was 0.0118 nM.
With B12 the Kd was 0.0177 nM.
In the case of B5, the Kd is reported as 0.00562 nM.
B6 was tested, and the Kd was < 0.01 nM.
For B13, the Kd was 0.0809 nM.
B7 showed a Kd of 0.00841 nM.
In the case of B8, the Kd is reported as < 0.01 nM.
In the case of B14, the Kd is reported as 0.00465 nM.
B15 gave a Kd of 0.151 nM.
B9 was tested, and the Kd was < 0.01 nM.
